Test results from PMC2132798 (The Journal of Cell Biology, 1998).

B1: Myo3p (1,118–1,271) (domain or fragment, S. cerevisiae, UniProt P36006 1118-1271, looked up)
chain: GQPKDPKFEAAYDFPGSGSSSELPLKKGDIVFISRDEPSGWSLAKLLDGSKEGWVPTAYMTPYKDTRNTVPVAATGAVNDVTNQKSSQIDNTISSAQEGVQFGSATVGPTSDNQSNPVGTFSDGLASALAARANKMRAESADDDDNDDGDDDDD
B2: Vrp1p (1–200) (domain or fragment, S. cerevisiae, UniProt P37370 1-200, looked up)
chain: MAGAPAPPPPPPPPALGGSAPKPAKSVMQGRDALLGDIRKGMKLKKAETNDRSAPIVGGGVVSSASGSSGTVSSKGPSMSAPPIPGMGAPQLGDILAGGIPKLKHINNNASTKPSPSASAPPIPGAVPSVAAPPIPNAPLSPAPAVPSIPSSSAPPIPDIPSSAAPPIPIVPSSPAPPLPLSGASAPKVPQNRPHMPSVR
B3: Myo5p (1,082–1,219) (domain or fragment, S. cerevisiae, UniProt Q04439 1082-1219, looked up)
chain: SSKPKEPMFEAAYDFPGSGSPSELPLKKGDVIYITREEPSGWSLGKLLDGSKEGWVPTAYMKPHSGNNNIPTPPQNRDVPKPVLNSVQHDNTSANVIPAAAQASLGDGLANALAARANKMRLESDDEEANEDEEEDDW
B4: Vrp1p (195–817) (domain or fragment, S. cerevisiae, UniProt P37370 195-817, looked up)
chain: HMPSVRPAHRSHQRKSSNISLPSVSAPPLPSASLPTHVSNPPQAPPPPPTPTIGLDSKNIKPTDNAVSPPSSEVPAGGLPFLAEINARRSERGAVEGVSSTKIQTENHKSPSQPPLPSSAPPIPTSHAPPLPPTAPPPPSLPNVTSAPKKATSAPAPPPPPLPAAMSSASTNSVKATPVPPTLAPPLPNTTSVPPNKASSMPAPPPPPPPPPGAFSTSSALSASSIPLAPLPPPPPPSVATSVPSAPPPPPTLTTNKPSASSKQSKISSSSSSSAVTPGGPLPFLAEIQKKRDDRFVVGGDTGYTTQDKQEDVIGSSKDDNVRPSPISPSINPPKQSSQNGMSFLDEIESKLHKQTSSNAFNAPPPHTDAMAPPLPPSAPPPPITSLPTPTASGDDHTNDKSETVLGMKKAKAPALPGHVPPPPVPPVLSDDSKNNVPAASLLHDVLPSSNLEKPPSPPVAAAPPLPTFSAPSLPQQSVSTSIPSPPPVAPTLSVRTETESISKNPTKSPPPPPSPSTMDTGTSNSPSKNLKQRLFSTGGSTLQHKHNTHTNQPDVDVGRYTIGGSNSIVGAKSGNERIVIDDSRFKWTNVSQMPKPRPFQNKTKLYPSGKGSSVPLDLTLFT

Legend:
Test in all cases: two-hybrid
Vrp1p (1–200) = molecular target: B2
Vrp1p (195–817) = molecular target: B4
Myo3p (1,118–1,271) = molecular target: B1
Myo5p (1,082–1,219) = molecular target: B3

Binder | lacZ activity (Miller units) (Vrp1p (1–200)) | lacZ activity (Miller units) (Vrp1p (195–817)) | lacZ activity (Miller units) (Myo3p (1,118–1,271)) | lacZ activity (Miller units) (Myo5p (1,082–1,219))
B1 | 1610 ± 264 | 96.3 ± 21.8 | – | –
B2 | – | – | 254 ± 27.1 | 140 ± 2.3
B3 | 1060 ± 149 | 345 ± 7.3 | – | –
B4 | – | – | 74.5 ± 4.3 | 28.5 ± 2
